Reference: the supplement of paper PMC9112550, “Optimization of the antimicrobial peptide Bac7 by deep mutational scanning” (BMC Biology, 2022)

Tested on: Escherichia coli TOP10
Experiment: shrunken log2 fold change of peptide-encoding DNA abundance (4.5 h post-induction vs induction); higher = less antimicrobial activity (less host growth inhibition)
Details: time post-induction: 4.5 h; library: site-saturation at positions 5, 18, 19, 20
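Also: peptides expressed intracellularly from a pBAD plasmid library in pooled LB shake-flask culture, induced with 0.3% L-arabinose, DNA abundance read by NGS, three biological replicates, DESeq2 with apeglm shrinkage.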

| Sequence | shrunken log2 fold change |
| --- | --- |
| RRIRWRPPRLPRPRPRPIHFPRP | -0.357 |
| RRIRWRPPRLPRPRPRPIIGPRP | 0.0626 |
| RRIRWRPPRLPRPRPRPILMPRP | -0.286 |
| RRIRWRPPRLPRPRPRPINMPRP | -0.328 |
| RRIRWRPPRLPRPRPRPINTPRP | -0.494 |
| RRIRWRPPRLPRPRPRPIPFPRP | -0.102 |
| RRIRWRPPRLPRPRPRPIRFPRP | -0.0926 |
| RRIRWRPPRLPRPRPRPIRRPRP | -0.00924 |
| RRIRWRPPRLPRPRPRPITDPRP | -0.15 |
| RRIRWRPPRLPRPRPRPITYPRP | -0.828 |
| RRIRWRPPRLPRPRPRPIVYPRP | -0.0137 |
| RRIRWRPPRLPRPRPRPIWQPRP | -0.0567 |
| RRIRWRPPRLPRPRPRPIWVPRP | -0.0257 |
| RRIRWRPPRLPRPRPRPIYRPRP | 0.0155 |
| RRIRWRPPRLPRPRPRPKAQPRP | 0.0185 |
| RRIRWRPPRLPRPRPRPKCHPRP | 0.206 |
| RRIRWRPPRLPRPRPRPKDCPRP | -0.0724 |
| RRIRWRPPRLPRPRPRPKDMPRP | -0.0331 |
| RRIRWRPPRLPRPRPRPKDPPRP | -0.0777 |
| RRIRWRPPRLPRPRPRPKFRPRP | 0.077 |
| RRIRWRPPRLPRPRPRPKGKPRP | -0.00191 |
| RRIRWRPPRLPRPRPRPKGSPRP | 0.0359 |
| RRIRWRPPRLPRPRPRPKHDPRP | 0.0868 |
| RRIRWRPPRLPRPRPRPKHGPRP | 0.186 |
| RRIRWRPPRLPRPRPRPKIKPRP | -0.0556 |

| Sequence | shrunken log2 fold change |
| --- | --- |
| RRIRWRPPRLPRPRPRPKLDPRP | 0.206 |
| RRIRWRPPRLPRPRPRPKMGPRP | 0.0381 |
| RRIRWRPPRLPRPRPRPKMRPRP | 1.25 |
| RRIRWRPPRLPRPRPRPKNMPRP | -0.189 |
| RRIRWRPPRLPRPRPRPKRHPRP | 0.467 |
| RRIRWRPPRLPRPRPRPKRMPRP | 0.217 |
| RRIRWRPPRLPRPRPRPKRQPRP | 0.167 |
| RRIRWRPPRLPRPRPRPKRVPRP | 0.383 |
| RRIRWRPPRLPRPRPRPKTAPRP | 0.203 |
| RRIRWRPPRLPRPRPRPKTKPRP | 0.101 |
| RRIRWRPPRLPRPRPRPKVYPRP | -0.0533 |
| RRIRWRPPRLPRPRPRPKYSPRP | -0.654 |
| RRIRWRPPRLPRPRPRPLAMPRP | 0.0898 |
| RRIRWRPPRLPRPRPRPLCPPRP | 0.0748 |
| RRIRWRPPRLPRPRPRPLEAPRP | 0.668 |
| RRIRWRPPRLPRPRPRPLFWPRP | 0.373 |
| RRIRWRPPRLPRPRPRPLGTPRP | 0.0928 |
| RRIRWRPPRLPRPRPRPLGYPRP | -0.24 |
| RRIRWRPPRLPRPRPRPLIPPRP | -0.327 |
| RRIRWRPPRLPRPRPRPLLMPRP | 0.284 |
| RRIRWRPPRLPRPRPRPLMKPRP | -0.0639 |
| RRIRWRPPRLPRPRPRPLMWPRP | 0.173 |
| RRIRWRPPRLPRPRPRPLNLPRP | -0.184 |
| RRIRWRPPRLPRPRPRPLPDPRP | 0.672 |
| RRIRWRPPRLPRPRPRPLPLPRP | 0.477 |

| Sequence | shrunken log2 fold change |
| --- | --- |
| RRIRWRPPRLPRPRPRPLQIPRP | -0.125 |
| RRIRWRPPRLPRPRPRPLQTPRP | 0.957 |
| RRIRWRPPRLPRPRPRPLRDPRP | 0.655 |
| RRIRWRPPRLPRPRPRPLRFPRP | 0.399 |
| RRIRWRPPRLPRPRPRPLRTPRP | 1.39 |
| RRIRWRPPRLPRPRPRPLTRPRP | 2.04 |
| RRIRWRPPRLPRPRPRPLVMPRP | 0.000565 |
| RRIRWRPPRLPRPRPRPLWAPRP | 0.417 |
| RRIRWRPPRLPRPRPRPLYTPRP | -0.24 |
| RRIRWRPPRLPRPRPRPMACPRP | -0.0978 |
| RRIRWRPPRLPRPRPRPMAHPRP | 0.0444 |
| RRIRWRPPRLPRPRPRPMAYPRP | -0.0846 |
| RRIRWRPPRLPRPRPRPMCHPRP | -0.115 |
| RRIRWRPPRLPRPRPRPMDCPRP | -0.0839 |
| RRIRWRPPRLPRPRPRPMDLPRP | -0.214 |
| RRIRWRPPRLPRPRPRPMDPPRP | 0.0622 |
| RRIRWRPPRLPRPRPRPMEAPRP | 0.0987 |
| RRIRWRPPRLPRPRPRPMERPRP | -0.0173 |
| RRIRWRPPRLPRPRPRPMGYPRP | -0.132 |
| RRIRWRPPRLPRPRPRPMHRPRP | -0.0497 |
| RRIRWRPPRLPRPRPRPMHVPRP | 0.0255 |
| RRIRWRPPRLPRPRPRPMINPRP | -0.212 |
| RRIRWRPPRLPRPRPRPMISPRP | 0.248 |
| RRIRWRPPRLPRPRPRPMMPPRP | 0.0187 |
| RRIRWRPPRLPRPRPRPMNAPRP | 0.327 |

| Sequence | shrunken log2 fold change |
| --- | --- |
| RRIRWRPPRLPRPRPRPMNRPRP | -0.00448 |
| RRIRWRPPRLPRPRPRPMPFPRP | -0.133 |
| RRIRWRPPRLPRPRPRPMPGPRP | 0.0623 |
| RRIRWRPPRLPRPRPRPMPTPRP | 0.721 |
| RRIRWRPPRLPRPRPRPMRGPRP | 0.754 |
| RRIRWRPPRLPRPRPRPMRKPRP | 1.4 |
| RRIRWRPPRLPRPRPRPMRNPRP | 0.315 |
| RRIRWRPPRLPRPRPRPMVDPRP | -0.0461 |
| RRIRWRPPRLPRPRPRPMVFPRP | 0.274 |
| RRIRWRPPRLPRPRPRPMYGPRP | -0.0856 |
| RRIRWRPPRLPRPRPRPNANPRP | 0.109 |
| RRIRWRPPRLPRPRPRPNARPRP | 0.0903 |
| RRIRWRPPRLPRPRPRPNAVPRP | 0.259 |
| RRIRWRPPRLPRPRPRPNCAPRP | 0.255 |
| RRIRWRPPRLPRPRPRPNCGPRP | 0.192 |
| RRIRWRPPRLPRPRPRPNCVPRP | 0.0603 |
| RRIRWRPPRLPRPRPRPNDEPRP | 0.0507 |
| RRIRWRPPRLPRPRPRPNDTPRP | -0.268 |
| RRIRWRPPRLPRPRPRPNENPRP | -0.0342 |
| RRIRWRPPRLPRPRPRPNEPPRP | -0.000964 |
| RRIRWRPPRLPRPRPRPNEYPRP | -0.39 |
| RRIRWRPPRLPRPRPRPNFYPRP | -0.232 |
| RRIRWRPPRLPRPRPRPNHEPRP | -0.197 |
| RRIRWRPPRLPRPRPRPNHGPRP | -0.16 |
| RRIRWRPPRLPRPRPRPNHVPRP | -0.651 |

| Sequence | shrunken log2 fold change |
| --- | --- |
| RRIRWRPPRLPRPRPRPNIGPRP | 0.138 |
| RRIRWRPPRLPRPRPRPNIKPRP | -0.384 |
| RRIRWRPPRLPRPRPRPNITPRP | -0.161 |
| RRIRWRPPRLPRPRPRPNIVPRP | -0.112 |
| RRIRWRPPRLPRPRPRPNKRPRP | 0.149 |
| RRIRWRPPRLPRPRPRPNKWPRP | -0.0175 |
| RRIRWRPPRLPRPRPRPNLIPRP | 0.0144 |
| RRIRWRPPRLPRPRPRPNLKPRP | -0.0669 |
| RRIRWRPPRLPRPRPRPNNPPRP | -0.631 |
| RRIRWRPPRLPRPRPRPNNYPRP | -0.571 |
| RRIRWRPPRLPRPRPRPNQHPRP | -0.071 |
| RRIRWRPPRLPRPRPRPNQTPRP | 0.0653 |
| RRIRWRPPRLPRPRPRPNRAPRP | 0.0222 |
| RRIRWRPPRLPRPRPRPNRKPRP | -0.239 |
| RRIRWRPPRLPRPRPRPNSEPRP | -0.071 |
| RRIRWRPPRLPRPRPRPNSMPRP | -0.114 |
| RRIRWRPPRLPRPRPRPNSNPRP | -0.583 |
| RRIRWRPPRLPRPRPRPNSVPRP | -0.325 |
| RRIRWRPPRLPRPRPRPNTSPRP | -0.336 |
| RRIRWRPPRLPRPRPRPNVCPRP | 0.0917 |
| RRIRWRPPRLPRPRPRPNVRPRP | 0.057 |
| RRIRWRPPRLPRPRPRPNYDPRP | -0.24 |
| RRIRWRPPRLPRPRPRPPAHPRP | 0.498 |
| RRIRWRPPRLPRPRPRPPAMPRP | 1.57 |
| RRIRWRPPRLPRPRPRPPDEPRP | 0.654 |

| Sequence | shrunken log2 fold change |
| --- | --- |
| RRIRWRPPRLPRPRPRPPDQPRP | 0.694 |
| RRIRWRPPRLPRPRPRPPFIPRP | -0.117 |
| RRIRWRPPRLPRPRPRPPFKPRP | 0.331 |
| RRIRWRPPRLPRPRPRPPGFPRP | 0.209 |
| RRIRWRPPRLPRPRPRPPGYPRP | 0.684 |
| RRIRWRPPRLPRPRPRPPHCPRP | 0.754 |
| RRIRWRPPRLPRPRPRPPHEPRP | 0.0628 |
| RRIRWRPPRLPRPRPRPPHMPRP | 0.112 |
| RRIRWRPPRLPRPRPRPPHRPRP | 0.321 |
| RRIRWRPPRLPRPRPRPPIRPRP | -0.0117 |
| RRIRWRPPRLPRPRPRPPLQPRP | 0.475 |
| RRIRWRPPRLPRPRPRPPNPPRP | 0.878 |
| RRIRWRPPRLPRPRPRPPRMPRP | 0.348 |
| RRIRWRPPRLPRPRPRPPSIPRP | 0.357 |
| RRIRWRPPRLPRPRPRPPWCPRP | 0.183 |
| RRIRWRPPRLPRPRPRPPWGPRP | 0.483 |
| RRIRWRPPRLPRPRPRPPWYPRP | -0.0946 |
| RRIRWRPPRLPRPRPRPPYIPRP | -0.3 |
| RRIRWRPPRLPRPRPRPPYPPRP | 0.0905 |
| RRIRWRPPRLPRPRPRPQCVPRP | -0.0311 |
| RRIRWRPPRLPRPRPRPQDEPRP | -0.143 |
| RRIRWRPPRLPRPRPRPQEYPRP | -0.0612 |
| RRIRWRPPRLPRPRPRPQFFPRP | -0.134 |
| RRIRWRPPRLPRPRPRPQFGPRP | 0.0671 |
| RRIRWRPPRLPRPRPRPQFSPRP | 0.053 |
